# In patent US20230002478A1:
# Experiments:
# FcγR3A 176V [1] = target: FcγR3A 176V (UniProt P08637); test: SPR, steady state fit
# FcγR3A 176F [2] = target: FcγR3A 176F (UniProt P08637); test: SPR, steady state fit
# FcγR2a H167 [3] = target: FcγR2a H167 (UniProt P12318); test: SPR, steady state fit
# FcγR2B/C [4] = target: FcγR2B/C (UniProt P31994); test: SPR, steady state fit
# FcγR2a R167 [5] = target: FcγR2a R167 (UniProt P12318); test: SPR, kinetic fit, second of two runs
# [6] = target: Fc-gamma Receptor 1 (FcγR1) (UniProt P12314); test: SPR, experimental Rmax / theoretical Rmax
# Chain of Fc-gamma Receptor 1 (FcγR1) (P12314 16-288): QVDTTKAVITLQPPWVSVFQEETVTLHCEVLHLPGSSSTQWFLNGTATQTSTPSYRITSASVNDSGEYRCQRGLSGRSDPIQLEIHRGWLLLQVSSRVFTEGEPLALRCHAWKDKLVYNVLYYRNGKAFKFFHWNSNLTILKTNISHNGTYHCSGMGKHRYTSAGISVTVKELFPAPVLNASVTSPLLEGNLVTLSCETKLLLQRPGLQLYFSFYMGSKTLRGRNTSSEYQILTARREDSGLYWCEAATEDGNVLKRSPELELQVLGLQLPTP
# FcγR3A 176F [7] = target: FcγR3A 176F (UniProt P08637); test: SPR, experimental Rmax / theoretical Rmax
# FcγR2B/C [8] = target: FcγR2B/C (UniProt P31994); test: SPR, experimental Rmax / theoretical Rmax
# [9] = target: neonatal Fc receptor (FcRn) (Human) (UniProt P55899); test: SPR at pH 6.0, kinetic fit
# Chain of neonatal Fc receptor (FcRn) (Human) (P55899 24-297): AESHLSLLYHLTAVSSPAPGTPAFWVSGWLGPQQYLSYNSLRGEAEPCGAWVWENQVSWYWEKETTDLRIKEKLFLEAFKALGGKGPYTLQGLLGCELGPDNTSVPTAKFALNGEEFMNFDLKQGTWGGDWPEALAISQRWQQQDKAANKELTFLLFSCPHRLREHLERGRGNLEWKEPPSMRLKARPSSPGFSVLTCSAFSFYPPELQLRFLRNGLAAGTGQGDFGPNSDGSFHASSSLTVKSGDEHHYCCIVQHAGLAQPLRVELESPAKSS
# [10] = target: Fc-gamma Receptor 1 (FcγR1) (UniProt P12314)
# FcγR3A 176V [11] = target: FcγR3A 176V (UniProt P08637); test: SPR, kinetic fit
# FcγR3A 176F [12] = target: FcγR3A 176F (UniProt P08637); test: SPR, kinetic fit
# FcγR2a H167 [13] = target: FcγR2a H167 (UniProt P12318); test: SPR, kinetic fit
# FcγR2B/C [14] = target: FcγR2B/C (UniProt P31994); test: SPR, kinetic fit
# FcγR2a R167 [15] = target: FcγR2a R167 (UniProt P12318); test: SPR, kinetic fit, first of two runs
# [16] = target: neonatal Fc receptor (FcRn) (Human) (UniProt P55899); test: SPR at pH 6.0, steady state fit
# FcγR2a R167 [17] = target: FcγR2a R167 (UniProt P12318); test: SPR, steady state fit, first of two runs
# [18] = target: neonatal Fc receptor (FcRn) (Human) (UniProt P55899); test: SPR at pH 6.0, experimental Rmax / theoretical Rmax
# [19] = target: biotinylated SARS-CoV-2 spike RBD (Ancestral) (SARS-CoV-2) (UniProt P0DTC2); test: AlphaLISA, inhibition of ACE2-muFc / biotinylated spike complex
# FcγR2a R167 [20] = target: FcγR2a R167 (UniProt P12318); test: SPR, steady state fit, second of two runs
# Chain of FcγR2B/C (P31994 46-217): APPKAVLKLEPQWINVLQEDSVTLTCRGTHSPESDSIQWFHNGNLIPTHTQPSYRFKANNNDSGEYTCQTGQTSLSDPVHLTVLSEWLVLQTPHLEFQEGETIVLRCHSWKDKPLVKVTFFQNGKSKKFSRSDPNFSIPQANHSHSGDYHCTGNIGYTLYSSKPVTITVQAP
# Chain of FcγR3A 176F (P08637 17-208): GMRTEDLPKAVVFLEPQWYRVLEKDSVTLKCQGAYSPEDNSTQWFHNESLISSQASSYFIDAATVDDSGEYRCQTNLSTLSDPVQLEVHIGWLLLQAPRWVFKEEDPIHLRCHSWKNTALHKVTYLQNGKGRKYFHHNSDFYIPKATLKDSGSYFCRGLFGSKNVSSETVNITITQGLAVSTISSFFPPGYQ
# Chain of FcγR2a R167 (P12318 36-218 H167R): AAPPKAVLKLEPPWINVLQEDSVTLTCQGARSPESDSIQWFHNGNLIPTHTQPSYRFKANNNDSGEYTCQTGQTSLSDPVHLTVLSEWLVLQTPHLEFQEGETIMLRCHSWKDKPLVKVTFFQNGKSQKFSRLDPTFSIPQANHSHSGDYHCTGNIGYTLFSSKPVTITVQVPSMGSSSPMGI
# Chain of FcγR2a H167 (P12318 36-218): as the sequence (P12318 36-218 H167R) above, with R132H counted along it
# Chain of FcγR3A 176V (P08637 17-208 F176V): as the sequence (P08637 17-208) above, with F160V counted along it
substance,measurement,setting,value
anti-RBD neutralizing monoclonal antibody (human IgG1) from Acro Biosystems (SAD-S35),Kd,FcγR3A 176V [1],210 nM
same,Kd,FcγR3A 176F [2],796 nM
same,Kd,FcγR2a H167 [3],537 nM
same,Kd,FcγR2B/C [4],1590 nM
same,Kd,FcγR2a R167 [5],650 nM
same,% Activity,[6],120%
same,% Activity,FcγR3A 176F [7],92%
same,% Activity,FcγR2B/C [8],93%
same,Kd,[9],81.1 nM
same,Kd,[10],0.46 nM
same,Kd,FcγR3A 176V [11],161 nM
same,Kd,FcγR3A 176F [12],1110 nM
same,Kd,FcγR2a H167 [13],462 nM
same,Kd,FcγR2B/C [14],1360 nM
same,Kd,FcγR2a R167 [15],596 nM
same,Kd,[16],86.5 nM
same,Kd,FcγR2a R167 [17],636 nM
same,% Activity,[18],116%
same,IC50,[19],6.8 nM
same,Kd,FcγR2a R167 [20],640 nM
